Test results taken from PMC9482650, “Quantitative fragmentomics allow affinity mapping of interactomes” (Nature Communications, 2022).

T1: DFNB31_2, Q9P202
T1 sequence (Q9P202 274-371, limits assumed, looked up): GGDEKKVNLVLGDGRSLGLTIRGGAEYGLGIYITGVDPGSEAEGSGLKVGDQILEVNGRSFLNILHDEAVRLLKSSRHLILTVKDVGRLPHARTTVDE

T2: MPDZ_5, O75970
T2 sequence (O75970 695-796, limits assumed, looked up): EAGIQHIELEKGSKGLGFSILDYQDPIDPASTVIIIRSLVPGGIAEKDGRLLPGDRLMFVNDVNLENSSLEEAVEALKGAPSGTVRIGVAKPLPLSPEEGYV

T3: GRIP1_2, Q9Y3R0
T3 sequence (Q9Y3R0 145-248, limits assumed, looked up): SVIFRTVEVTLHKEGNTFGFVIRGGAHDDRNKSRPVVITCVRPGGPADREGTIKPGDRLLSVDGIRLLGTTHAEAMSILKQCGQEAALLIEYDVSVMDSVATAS

T4: MPDZ_10, O75970
T4 sequence (O75970 1624-1722, limits assumed, looked up): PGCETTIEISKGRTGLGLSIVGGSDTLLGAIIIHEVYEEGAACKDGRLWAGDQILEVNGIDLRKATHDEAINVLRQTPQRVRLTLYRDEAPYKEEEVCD

T5: LRRC7, Q96NW7
T5 sequence (Q96NW7 1440-1537, limits assumed, looked up): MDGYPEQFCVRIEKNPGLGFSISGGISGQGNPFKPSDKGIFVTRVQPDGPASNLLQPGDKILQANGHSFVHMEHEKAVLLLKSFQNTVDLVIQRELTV

T6: RADIL, Q96JH8
T6 sequence (Q96JH8 971-1071, limits assumed, looked up): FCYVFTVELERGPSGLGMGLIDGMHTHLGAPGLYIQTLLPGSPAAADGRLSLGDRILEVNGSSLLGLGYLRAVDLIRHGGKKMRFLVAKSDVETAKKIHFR

T7: MPP6, Q9NZW5
T7 sequence (Q9NZW5 125-219, limits assumed, looked up): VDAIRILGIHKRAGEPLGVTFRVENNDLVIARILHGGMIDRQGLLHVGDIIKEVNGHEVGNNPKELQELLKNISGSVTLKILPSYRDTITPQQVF

T8: GRIP1_7, Q9Y3R0
T8 sequence (Q9Y3R0 999-1096, limits assumed, looked up): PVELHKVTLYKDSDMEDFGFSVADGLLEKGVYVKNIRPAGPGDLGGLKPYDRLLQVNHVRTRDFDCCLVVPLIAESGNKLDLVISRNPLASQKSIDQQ

T9: MPP7, Q5T2T1
T9 sequence (Q5T2T1 134-230, limits assumed, looked up): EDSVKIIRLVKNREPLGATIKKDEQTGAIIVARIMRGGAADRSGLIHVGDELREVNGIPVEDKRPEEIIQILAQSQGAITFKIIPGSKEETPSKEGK

T10: RAPGEF6, Q8TEU7
T10 sequence (Q8TEU7 525-625, limits assumed, looked up): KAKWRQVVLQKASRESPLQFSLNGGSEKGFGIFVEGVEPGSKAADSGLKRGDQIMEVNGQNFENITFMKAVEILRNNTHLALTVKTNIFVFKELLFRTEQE


The binders below were run against T1, DFNB31_2, Q9P202 (assay: holdup assay). Conditions: plain residues with an end cap or a label only (N-terminal biotin on a linker: ado-ado).
Parameters: key: below the threshold = too weak to quantify, mostly under pKd 3.1 to 4

Row | Binder | pKd
1 | DSEEELPTRL [GRK6, P43250] | below the threshold
2 | RDYTQSSSSL [GRM5, P41594] | below the threshold

The binders below were run against T2, MPDZ_5, O75970 (assay: holdup assay). Conditions: plain residues with an end cap or a label only (N-terminal biotin on a linker: ado-ado).
Parameters: key: below the threshold = too weak to quantify, mostly under pKd 3.1 to 4

Row | Binder | pKd
3 | DSEEELPTRL [GRK6, P43250] | below the threshold
4 | RDYTQSSSSL [GRM5, P41594] | below the threshold

Each binder was assayed against GIPC2, Q8TF65 (assay: holdup assay). Conditions: plain residues with an end cap or a label only (N-terminal biotin on a linker: ado-ado).
Chain of GIPC2, Q8TF65 (Q8TF65 112-203): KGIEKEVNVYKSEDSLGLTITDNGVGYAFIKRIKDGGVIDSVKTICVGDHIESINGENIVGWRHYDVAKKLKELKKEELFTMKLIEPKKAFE
Parameters: key: below the threshold = too weak to quantify, mostly under pKd 3.1 to 4

Row | Binder | pKd
5 | DSEEELPTRL [GRK6, P43250] | 3.65
6 | RDYTQSSSSL [GRM5, P41594] | below the threshold

What follows are binders tested against HTRA2, O43464 (assay: holdup assay). Conditions: plain residues with an end cap or a label only (N-terminal biotin on a linker: ado-ado).
Chain of HTRA2, O43464 (O43464 355-458): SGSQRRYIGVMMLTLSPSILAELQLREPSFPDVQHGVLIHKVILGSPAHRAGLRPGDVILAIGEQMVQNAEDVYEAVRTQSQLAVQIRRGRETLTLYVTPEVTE
Parameters: key: below the threshold = too weak to quantify, mostly under pKd 3.1 to 4

Row | Binder | pKd
7 | DSEEELPTRL [GRK6, P43250] | below the threshold
8 | RDYTQSSSSL [GRM5, P41594] | below the threshold

These binders were tested against T3, GRIP1_2, Q9Y3R0 (assay: holdup assay). Conditions: plain residues with an end cap or a label only (N-terminal biotin on a linker: ado-ado).
Parameters: key: below the threshold = too weak to quantify, mostly under pKd 3.1 to 4

Row | Binder | pKd
9 | DSEEELPTRL [GRK6, P43250] | below the threshold
10 | RDYTQSSSSL [GRM5, P41594] | below the threshold

The binders below were run against Inadl_2, Q8NI35 (assay: holdup assay). Conditions: plain residues with an end cap or a label only (N-terminal biotin on a linker: ado-ado).
Chain of Inadl_2, Q8NI35 (Q8NI35 238-335): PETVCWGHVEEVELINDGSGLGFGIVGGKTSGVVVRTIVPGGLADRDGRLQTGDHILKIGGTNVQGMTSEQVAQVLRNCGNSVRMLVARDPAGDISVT
Parameters: key: below the threshold = too weak to quantify, mostly under pKd 3.1 to 4

Row | Binder | pKd
11 | DSEEELPTRL [GRK6, P43250] | below the threshold
12 | RDYTQSSSSL [GRM5, P41594] | below the threshold

What follows are binders tested against T4, MPDZ_10, O75970 (assay: holdup assay). Conditions: plain residues with an end cap or a label only (N-terminal biotin on a linker: ado-ado).
Parameters: key: below the threshold = too weak to quantify, mostly under pKd 3.1 to 4

Row | Binder | pKd
13 | DSEEELPTRL [GRK6, P43250] | below the threshold
14 | RDYTQSSSSL [GRM5, P41594] | below the threshold

The binders below were run against MAGI3_2, Q5TCQ9 (assay: holdup assay). Conditions: plain residues with an end cap or a label only (N-terminal biotin on a linker: ado-ado).
Chain of MAGI3_2, Q5TCQ9 (Q5TCQ9 398-503): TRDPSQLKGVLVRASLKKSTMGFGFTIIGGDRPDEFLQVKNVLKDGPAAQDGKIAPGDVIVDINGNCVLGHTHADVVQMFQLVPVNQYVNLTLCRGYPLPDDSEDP
Parameters: key: below the threshold = too weak to quantify, mostly under pKd 3.1 to 4

Row | Binder | pKd
15 | DSEEELPTRL [GRK6, P43250] | below the threshold
16 | RDYTQSSSSL [GRM5, P41594] | below the threshold

Each binder was assayed against GRIP2_6, Q9C0E4 (assay: holdup assay). Conditions: plain residues with an end cap or a label only (N-terminal biotin on a linker: ado-ado).
Chain of GRIP2_6, Q9C0E4 (Q9C0E4 648-740): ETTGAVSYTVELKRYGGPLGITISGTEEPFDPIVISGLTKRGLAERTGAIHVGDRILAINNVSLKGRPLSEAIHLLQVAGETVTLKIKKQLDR
Parameters: key: below the threshold = too weak to quantify, mostly under pKd 3.1 to 4

Row | Binder | pKd
17 | DSEEELPTRL [GRK6, P43250] | below the threshold
18 | RDYTQSSSSL [GRM5, P41594] | below the threshold

Each binder was assayed against T5, LRRC7, Q96NW7 (assay: holdup assay). Conditions: plain residues with an end cap or a label only (N-terminal biotin on a linker: ado-ado).
Parameters: key: below the threshold = too weak to quantify, mostly under pKd 3.1 to 4

Row | Binder | pKd
19 | DSEEELPTRL [GRK6, P43250] | below the threshold
20 | RDYTQSSSSL [GRM5, P41594] | below the threshold

The binders below were run against MAGI2_3, Q86UL8 (assay: holdup assay). Conditions: plain residues with an end cap or a label only (N-terminal biotin on a linker: ado-ado).
Chain of MAGI2_3, Q86UL8 (Q86UL8 600-682): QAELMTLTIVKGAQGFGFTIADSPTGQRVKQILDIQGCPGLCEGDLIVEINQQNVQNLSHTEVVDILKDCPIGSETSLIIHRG
Parameters: key: below the threshold = too weak to quantify, mostly under pKd 3.1 to 4

Row | Binder | pKd
21 | DSEEELPTRL [GRK6, P43250] | below the threshold
22 | RDYTQSSSSL [GRM5, P41594] | below the threshold

What follows are binders tested against FRMPD4, Q14CM0 (assay: holdup assay). Conditions: plain residues with an end cap or a label only (N-terminal biotin on a linker: ado-ado).
Chain of FRMPD4, Q14CM0 (Q14CM0 67-160): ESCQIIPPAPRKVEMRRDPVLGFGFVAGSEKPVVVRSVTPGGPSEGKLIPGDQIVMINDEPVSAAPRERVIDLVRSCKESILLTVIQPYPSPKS
Parameters: key: below the threshold = too weak to quantify, mostly under pKd 3.1 to 4

Row | Binder | pKd
23 | DSEEELPTRL [GRK6, P43250] | 4.39
24 | RDYTQSSSSL [GRM5, P41594] | 3.65

These binders were tested against MAGI2_5, Q86UL8 (assay: holdup assay). Conditions: plain residues with an end cap or a label only (N-terminal biotin on a linker: ado-ado).
Chain of MAGI2_5, Q86UL8 (Q86UL8 915-1017): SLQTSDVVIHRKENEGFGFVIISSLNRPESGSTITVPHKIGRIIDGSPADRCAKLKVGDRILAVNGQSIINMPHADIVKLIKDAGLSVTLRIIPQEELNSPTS
Parameters: key: below the threshold = too weak to quantify, mostly under pKd 3.1 to 4

Row | Binder | pKd
25 | DSEEELPTRL [GRK6, P43250] | below the threshold
26 | RDYTQSSSSL [GRM5, P41594] | below the threshold

What follows are binders tested against IL16_1, Q14005 (assay: holdup assay). Conditions: plain residues with an end cap or a label only (N-terminal biotin on a linker: ado-ado).
Chain of IL16_1, Q14005 (Q14005 210-306): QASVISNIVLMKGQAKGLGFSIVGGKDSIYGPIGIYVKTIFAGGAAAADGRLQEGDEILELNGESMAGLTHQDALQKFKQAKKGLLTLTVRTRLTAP
Parameters: key: below the threshold = too weak to quantify, mostly under pKd 3.1 to 4

Row | Binder | pKd
27 | DSEEELPTRL [GRK6, P43250] | below the threshold
28 | RDYTQSSSSL [GRM5, P41594] | below the threshold

Each binder was assayed against PDZRN4_1, Q6ZMN7 (assay: holdup assay). Conditions: plain residues with an end cap or a label only (N-terminal biotin on a linker: ado-ado).
Chain of PDZRN4_1, Q6ZMN7 (Q6ZMN7 213-318): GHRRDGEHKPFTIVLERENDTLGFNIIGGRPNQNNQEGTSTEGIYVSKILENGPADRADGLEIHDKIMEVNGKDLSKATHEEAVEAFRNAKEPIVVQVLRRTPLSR
Parameters: key: below the threshold = too weak to quantify, mostly under pKd 3.1 to 4

Row | Binder | pKd
29 | DSEEELPTRL [GRK6, P43250] | below the threshold
30 | RDYTQSSSSL [GRM5, P41594] | below the threshold

These binders were tested against T6, RADIL, Q96JH8 (assay: holdup assay). Conditions: plain residues with an end cap or a label only (N-terminal biotin on a linker: ado-ado).
Parameters: key: below the threshold = too weak to quantify, mostly under pKd 3.1 to 4

Row | Binder | pKd
31 | DSEEELPTRL [GRK6, P43250] | below the threshold
32 | RDYTQSSSSL [GRM5, P41594] | below the threshold

The binders below were run against T7, MPP6, Q9NZW5 (assay: holdup assay). Conditions: plain residues with an end cap or a label only (N-terminal biotin on a linker: ado-ado).
Parameters: key: below the threshold = too weak to quantify, mostly under pKd 3.1 to 4

Row | Binder | pKd
33 | DSEEELPTRL [GRK6, P43250] | below the threshold
34 | RDYTQSSSSL [GRM5, P41594] | below the threshold

What follows are binders tested against LDB3, O75112 (assay: holdup assay). Conditions: plain residues with an end cap or a label only (N-terminal biotin on a linker: ado-ado).
Chain of LDB3, O75112 (O75112 1-94): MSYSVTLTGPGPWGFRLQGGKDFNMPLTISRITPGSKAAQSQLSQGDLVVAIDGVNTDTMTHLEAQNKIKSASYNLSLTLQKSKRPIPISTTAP
Parameters: key: below the threshold = too weak to quantify, mostly under pKd 3.1 to 4

Row | Binder | pKd
35 | DSEEELPTRL [GRK6, P43250] | below the threshold
36 | RDYTQSSSSL [GRM5, P41594] | below the threshold

Each binder was assayed against T8, GRIP1_7, Q9Y3R0 (assay: holdup assay). Conditions: plain residues with an end cap or a label only (N-terminal biotin on a linker: ado-ado).
Parameters: key: below the threshold = too weak to quantify, mostly under pKd 3.1 to 4

Row | Binder | pKd
37 | DSEEELPTRL [GRK6, P43250] | below the threshold
38 | RDYTQSSSSL [GRM5, P41594] | below the threshold

These binders were tested against MAST1, Q9Y2H9 (assay: holdup assay). Conditions: plain residues with an end cap or a label only (N-terminal biotin on a linker: ado-ado).
Chain of MAST1, Q9Y2H9 (Q9Y2H9 962-1065): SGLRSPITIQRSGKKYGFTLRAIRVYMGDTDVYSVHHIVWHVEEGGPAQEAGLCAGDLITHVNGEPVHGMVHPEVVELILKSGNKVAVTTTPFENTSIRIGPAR
Parameters: key: below the threshold = too weak to quantify, mostly under pKd 3.1 to 4

Row | Binder | pKd
39 | DSEEELPTRL [GRK6, P43250] | 4.19
40 | RDYTQSSSSL [GRM5, P41594] | 4.67

These binders were tested against DLG4_3, P78352 (assay: holdup assay). Conditions: plain residues with an end cap or a label only (N-terminal biotin on a linker: ado-ado).
Chain of DLG4_3, P78352 (P78352 306-403): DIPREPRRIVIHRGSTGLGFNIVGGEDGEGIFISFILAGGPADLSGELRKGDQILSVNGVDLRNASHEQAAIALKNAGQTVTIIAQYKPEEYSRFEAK
Parameters: key: below the threshold = too weak to quantify, mostly under pKd 3.1 to 4

Row | Binder | pKd
41 | DSEEELPTRL [GRK6, P43250] | below the threshold
42 | RDYTQSSSSL [GRM5, P41594] | below the threshold

What follows are binders tested against PTPN3, P26045 (assay: holdup assay). Conditions: plain residues with an end cap or a label only (N-terminal biotin on a linker: ado-ado).
Chain of PTPN3, P26045 (P26045 505-587): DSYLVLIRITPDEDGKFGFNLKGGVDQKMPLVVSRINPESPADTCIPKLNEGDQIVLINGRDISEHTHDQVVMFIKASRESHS
Parameters: key: below the threshold = too weak to quantify, mostly under pKd 3.1 to 4

Row | Binder | pKd
43 | DSEEELPTRL [GRK6, P43250] | 3.77
44 | RDYTQSSSSL [GRM5, P41594] | 4.27

The binders below were run against T9, MPP7, Q5T2T1 (assay: holdup assay). Conditions: plain residues with an end cap or a label only (N-terminal biotin on a linker: ado-ado).
Parameters: key: below the threshold = too weak to quantify, mostly under pKd 3.1 to 4

Row | Binder | pKd
45 | DSEEELPTRL [GRK6, P43250] | below the threshold
46 | RDYTQSSSSL [GRM5, P41594] | below the threshold

Each binder was assayed against FRMPD2_3, Q68DX3 (assay: holdup assay). Conditions: plain residues with an end cap or a label only (N-terminal biotin on a linker: ado-ado).
Chain of FRMPD2_3, Q68DX3 (Q68DX3 1073-1166): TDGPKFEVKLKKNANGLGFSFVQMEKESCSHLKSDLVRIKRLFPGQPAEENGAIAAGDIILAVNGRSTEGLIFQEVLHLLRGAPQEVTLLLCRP
Parameters: key: below the threshold = too weak to quantify, mostly under pKd 3.1 to 4

Row | Binder | pKd
47 | DSEEELPTRL [GRK6, P43250] | 3.53
48 | RDYTQSSSSL [GRM5, P41594] | below the threshold

What follows are binders tested against Inadl_4, Q8NI35 (assay: holdup assay). Conditions: plain residues with an end cap or a label only (N-terminal biotin on a linker: ado-ado).
Chain of Inadl_4, Q8NI35 (Q8NI35 547-651): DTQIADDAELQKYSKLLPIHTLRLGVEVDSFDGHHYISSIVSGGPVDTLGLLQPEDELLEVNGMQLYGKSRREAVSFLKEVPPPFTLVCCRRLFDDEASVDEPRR
Parameters: key: below the threshold = too weak to quantify, mostly under pKd 3.1 to 4

Row | Binder | pKd
49 | DSEEELPTRL [GRK6, P43250] | below the threshold
50 | RDYTQSSSSL [GRM5, P41594] | below the threshold

Each binder was assayed against T10, RAPGEF6, Q8TEU7 (assay: holdup assay). Conditions: plain residues with an end cap or a label only (N-terminal biotin on a linker: ado-ado).
Parameters: key: below the threshold = too weak to quantify, mostly under pKd 3.1 to 4

Row | Binder | pKd
51 | DSEEELPTRL [GRK6, P43250] | below the threshold
52 | RDYTQSSSSL [GRM5, P41594] | below the threshold

What follows are binders tested against NHERF4_1, Q86UT5-2 (assay: holdup assay). Conditions: plain residues with an end cap or a label only (N-terminal biotin on a linker: ado-ado).
Chain of NHERF4_1, Q86UT5-2 (Q86UT5 other isoform, or with tags, fused parts or gaps): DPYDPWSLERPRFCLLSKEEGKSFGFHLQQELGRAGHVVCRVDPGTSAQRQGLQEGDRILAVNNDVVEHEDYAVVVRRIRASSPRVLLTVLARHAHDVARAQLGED
Parameters: key: below the threshold = too weak to quantify, mostly under pKd 3.1 to 4

Row | Binder | pKd
53 | DSEEELPTRL [GRK6, P43250] | 4.22
54 | RDYTQSSSSL [GRM5, P41594] | 4.13

The binders below were run against CASK, O14936 (assay: holdup assay). Conditions: plain residues with an end cap or a label only (N-terminal biotin on a linker: ado-ado).
Chain of CASK, O14936 (O14936 487-570): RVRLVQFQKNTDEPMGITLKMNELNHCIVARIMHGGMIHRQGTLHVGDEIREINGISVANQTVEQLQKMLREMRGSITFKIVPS
Parameters: key: below the threshold = too weak to quantify, mostly under pKd 3.1 to 4

Row | Binder | pKd
55 | DSEEELPTRL [GRK6, P43250] | below the threshold
56 | RDYTQSSSSL [GRM5, P41594] | below the threshold
